This sample holds only a part of the variants without activity.
B1: TPR 5TU (parent)
chain: GGAUCUUCUCGAUCUAACAAAAAAGACAAAUCUGCCACAAAGCUUGAGAGCAUCUUCGGAUGCAGAGGCGGCAGCCUUCGGUGGCGCGAUAGCGCCAACGUUCUCAACUAUGACACGCAAAACGCGUGCUCCGUUGAAUGGAGUUUAUCAUG

Variants of: B1
Assay: polymerase ribozyme fitness, log enrichment relative to wild type (log ratio); higher = more active; in vitro selection for triplet polymerase activity
Procedure, shortened: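 Only genotypes with ≥10 input reads and ≥1 read per output were kept after Illumina sequencing of input and output libraries. These libraries were PCR-built, transcribed mutants of each subunit of a heterodimeric triplet polymerase ribozyme, each put through one triplicate in vitro selection round with frozen incubation at −7 °C, gel excision of extended constructs, streptavidin-bead capture and RT-PCR. Fitness is a logarithmic ratio of genotype enrichment to wild-type enrichment, from inverse-variance-weighted replicate averages, with the logarithm in base 2.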

Variant	polymerase ribozyme fitness (log ratio)
C32U	-1.22
G34U A40G U55G U56A U101A U102G G126A	≤ -4.2
U33G U55G G68A C79A G84U G136U	≤ -4.2
C32G C79U C96G A142C	-3.79
C32A G84A	-3.57
U33G G83A G88U G136C	≤ -4.2
C32U G50C C54G A73G G88A C96G	≤ -4.2
C32U A41U	-3.95
U33A C76G G84C C85G C87G A89G G136C U145A	≤ -4.2
U33G C54A G86A C87G A119U A122U G143C A147C	≤ -4.2
G34A G58A U90A G94A U109G	≤ -4.2
G34A C87U A89U G100A C103G A107U G124C U135G G140A G141C	≤ -4.2
C32U C36A U55G C93G G133U G141U	-4.01
C32U U61A G74U C99G	≤ -4.2
G34A U55A C69A C76U G80C C87G A89C A107C C116U	≤ -4.2
C32A C51A C54A G92A A97U U146C	≤ -4.2
G34C U55G G65A	≤ -4.2
U33A U61A	-3.64
C32U C85U	-1.97
U33G G50A A52C C76U C79U A107G U151A	≤ -4.2
C32U A40U U56C C85U U90A C114U	-4.06

Variant	polymerase ribozyme fitness (log ratio)
U33C A97G	-2.92
C32A C87A C93U	≤ -4.2
C32U G71C C103G A113G A121G U134C	≤ -4.2
G34C A39C U55A A60U A73U U146G	≤ -4.2
G34A A49C C95U G140U G141A	≤ -4.2
G34A C36A A137G	≤ -4.2
C32G A49C A142U	≤ -4.2
C32G A40U C57U U135G	≤ -4.2
C32U G80U U102G A113U C125U G126A	≤ -4.2
C32G C93U A119U A147U	≤ -4.2
U33C G68A	-3.97
U33G U61A	-3.72
U33A C75G C76A A142G	≤ -4.2
C32A A41C G94U C103A C118U	≤ -4.2
C32G G65C A73G C76U A106G	≤ -4.2
G34A U77G C87A A91C C108U G133A	≤ -4.2
U33A G86A A142G	≤ -4.2
C32A A49U G68U C79G C85U U127G	≤ -4.2
G34C C36A A91C C96U C123G G140A	-4.15
C32A C96U	-4.11
G34A C87A G141A	≤ -4.2

Variant	polymerase ribozyme fitness (log ratio)
C32U A40C C85G C103A	≤ -4.2
U33C G50A	-3.85
U33G G81C G83A C87G C105A A120C A121G G143A U148A	≤ -4.2
U33C A49G U77G U130A G133U U135A	≤ -4.2
C32U C36A U55A U77G A91U G140U	-3.95
C32G A49U G65U C93U C99G A110U A147U	≤ -4.2
C32G G92U U127G G152U	-3.98
C32G A49C	≤ -4.2
U33G G83C	-3.6
U33C G42A G81A A89G A119C C132U	≤ -4.2
C32A U44A A60C C79G G92U	≤ -4.2
G34C G59A G112U A115U C125U	≤ -4.2
U33A G92A	≤ -4.2
U33G C87A A142U	≤ -4.2
U33G C35A A66G C93U U104G C105U U134G	≤ -4.2
U33C C63U C99U A142G	≤ -4.2
U33G C72U C95A G126U A137G	≤ -4.2
C32G C54A C75U U77A C85U A106G U135C	≤ -4.2
U33G C95G C116A	-4.15
C32U C69G C72U G88C U135G	≤ -4.2
U33G A47C A52C U53A A73U C87G	≤ -4.2

Variant	polymerase ribozyme fitness (log ratio)
U33G G42A G58C A91G G100A	≤ -4.2
C32G A37C G140C	≤ -4.2
U33G A73G	-0.513
C32A G50U U55A C85A	≤ -4.2
C32G G48U G68A U134A U145C	≤ -4.2
C32G G94A	-3.8
C32G G94C	-4.18
C32G G42C U44A G88C C95U C103G	≤ -4.2
C32U C38U C93G A122G G126C U145A	≤ -4.2
C32A U33G A66G G83A U102G C118G G124C G141C G143U	≤ -4.2
U33G A47C U56A A73G G83U C99A	-4.05
C32G U55G C79U C96G	-4.01
C32U G50A A52G G58A C87G C118G	≤ -4.2
C32A G84U A97G C131U U139C	≤ -4.2
C32G C105U	≤ -4.2
U33C C54A G83C C108G U146A C149A	≤ -4.2
U33C C87G G152A	≤ -4.2
C32U C96G A142U	-3.35
G34C U78C A91G U146A	≤ -4.2
U33A C85U U146G A147U A150G	≤ -4.2
G34A G50A G68U G71A C76A C85A C125U	≤ -4.2

Reference: the RNAGym collection of RNA variant scans (doi:10.1073/pnas.2313332121)
